{"source": "patent US10407662B2", "about": "“Method of culturing pluripotent stem cell, and polypeptide to be used therefor” (FUJIFILM Corporation, priority 2012, dated 2019)", "molecules": {"B1": {"name": "RCP-7: recombinant polypeptide, Met + human vitronectin positions 1-55, 269-373, C274S (protein)", "chain": "MDQESCKGRCTEGFNVDKKCQCDELCSYYQSCCTDYTAECKPQVTRGDVFTMPEDESQEESEGSSLSAVFEHFAMMQRDSWEDIFELLFWGRTSAGTRQPQFISRDWHGVPGQVDAAMAGRIYISGMAPRPSLAKKQRFRHRNRKGYRSQRGHSRGRNQN", "modifications": "Synthetic Peptide RCP-7", "notes": "recombinant polypeptide, Met + human vitronectin positions 1-55, 269-373, C274S"}, "B2": {"name": "RCP-5: recombinant polypeptide, Met + human vitronectin positions 1-55, 302-341, 342-373 (protein)", "chain": "MDQESCKGRCTEGFNVDKKCQCDELCSYYQSCCTDYTAECKPQVTRGDVFTMPEDEFWGRTSAGTRQPQFISRDWHGVPGQVDAAMAGRIYISGMAPRPSLAKKQRFRHRNRKGYRSQRGHSRGRNQN", "modifications": "Synthetic Peptide RCP-5"}, "B3": {"name": "RCP-17: recombinant polypeptide, Met + SEQ ID NO:38; vitronectin positions 1-55, 269-277, 295-341, 342-373, C274S (printed as RCP-11 in Table 2) (protein)", "chain": "MDQESCKGRCTEGFNVDKKCQCDELCSYYQSCCTDYTAECKPQVTRGDVFTMPEDESQEESEGSEDIFELLFWGRTSAGTRQPQFISRDWHGVPGQVDAAMAGRIYISGMAPRPSLAKKQRFRHRNRKGYRSQRGHSRGRNQN", "modifications": "Synthetic Peptide RCP-17"}, "B4": {"name": "RCP-3: recombinant polypeptide, Met + human vitronectin positions 1-55, 322-341, 342-373 (protein)", "chain": "MDQESCKGRCTEGFNVDKKCQCDELCSYYQSCCTDYTAECKPQVTRGDVFTMPEDEGVPGQVDAAMAGRIYISGMAPRPSLAKKQRFRHRNRKGYRSQRGHSRGRNQN", "modifications": "Synthetic Peptide RCP-3"}, "B5": {"name": "RCP-6: recombinant polypeptide, Met + human vitronectin positions 1-55, 269-459, C274S (protein)", "chain": "MDQESCKGRCTEGFNVDKKCQCDELCSYYQSCCTDYTAECKPQVTRGDVFTMPEDESQEESEGSSLSAVFEHFAMMQRDSWEDIFELLFWGRTSAGTRQPQFISRDWHGVPGQVDAAMAGRIYISGMAPRPSLAKKQRFRHRNRKGYRSQRGHSRGRNQNSRRPSRATWLSLFSSEESNLGANNYDDYRMDWLVPATSEPIQSVFFFSGDKYYRVNLRTRRVDTVDPPYPRSIAQYWLGSPAPGHL", "modifications": "Synthetic Peptide RCP-6", "notes": "recombinant polypeptide, Met + human vitronectin positions 1-55, 269-459, C274S"}, "B6": {"name": "Natural vitronectin: human vitronectin (extracted from human plasma, BD Biosciences) (protein, listed as Homo sapiens)", "chain": "DQESCKGRCTEGFNVDKKCQCDELCSYYQSCCTDYTAECKPQVTRGDVFTMPEDEYTVYDDGEEKNNATVHEQVGGPSLTSDLQAQSKGNPEQTPVLKPEEEAPAPEVGASKPEGIDSRPETLHPGRPQPPAEEELCSGKPFDAFTDLKNGSLFAFRGQYCYELDEKAVRPGYPKLIRDVWGIEGPIDAAFTRINCQGKTYLFKGSQYWRFEDGVLDPDYPRNISDGFDGIPDNVDAALALPAHSYSGRERVYFFKGKQYWEYQFQHQPSQEECEGSSLSAVFEHFAMMQRDSWEDIFELLFWGRTSAGTRQPQFISRDWHGVPGQVDAAMAGRIYISGMAPRPSLAKKQRFRHRNRKGYRSQRGHSRGRNQNSRRPSRATWLSLFSSEESNLGANNYDDYRMDWLVPATCEPIQSVFFFSGDKYYRVNLRTRRVDTVDPPYPRSIAQYWLGCPAPGHL", "modifications": "glycosylated, plasma-derived"}, "B7": {"name": "RCP-8: recombinant polypeptide, Met + human vitronectin positions 1-55, 269-373, 374-379, C274S (protein)", "chain": "MDQESCKGRCTEGFNVDKKCQCDELCSYYQSCCTDYTAECKPQVTRGDVFTMPEDESQEESEGSSLSAVFEHFAMMQRDSWEDIFELLFWGRTSAGTRQPQFISRDWHGVPGQVDAAMAGRIYISGMAPRPSLAKKQRFRHRNRKGYRSQRGHSRGRNQNSRRPSR", "modifications": "Synthetic Peptide RCP-8", "notes": "recombinant polypeptide, Met + human vitronectin positions 1-55, 269-373, 374-379, C274S"}, "B8": {"name": "RCP-2: recombinant polypeptide, Met + human vitronectin positions 1-55, 342-373 (protein)", "chain": "MDQESCKGRCTEGFNVDKKCQCDELCSYYQSCCTDYTAECKPQVTRGDVFTMPEDEPRPSLAKKQRFRHRNRKGYRSQRGHSRGRNQN", "modifications": "Synthetic Peptide RCP-2"}, "B9": {"name": "RCP-4: recombinant polypeptide, Met + human vitronectin positions 1-55, 312-341, 342-373 (protein)", "chain": "MDQESCKGRCTEGFNVDKKCQCDELCSYYQSCCTDYTAECKPQVTRGDVFTMPEDEQPQFISRDWHGVPGQVDAAMAGRIYISGMAPRPSLAKKQRFRHRNRKGYRSQRGHSRGRNQN", "modifications": "Synthetic Peptide RCP-4"}, "B10": {"name": "RCP-11: comparative recombinant polypeptide, GPLG + positions 1-459; corresponds to the sequence of natural human vitronectin (protein)", "chain": "GPLGDQESCKGRCTEGFNVDKKCQCDELCSYYQSCCTDYTAECKPQVTRGDVFTMPEDEYTVYDDGEEKNNATVHEQVGGPSLTSDLQAQSKGNPEQTPVLKPEEEAPAPEVGASKPEGIDSRPETLHPGRPQPPAEEELCSGKPFDAFTDLKNGSLFAFRGQYCYELDEKAVRPGYPKLIRDVWGIEGPIDAAFTRINCQGKTYLFKGSQYWRFEDGVLDPDYPRNISDGFDGIPDNVDAALALPAHSYSGRERVYFFKGKQYWEYQFQHQPSQEECEGSSLSAVFEHFAMMQRDSWEDIFELLFWGRTSAGTRQPQFISRDWHGVPGQVDAAMAGRIYISGMAPRPSLAKKQRFRHRNRKGYRSQRGHSRGRNQNSRRPSRATWLSLFSSEESNLGANNYDDYRMDWLVPATCEPIQSVFFFSGDKYYRVNLRTRRVDTVDPPYPRSIAQYWLGCPAPGHL", "modifications": "Synthetic Peptide CRP-11"}}, "assay_type_in_all_cases": "cell-based", "key": {"[1]": {"tested_on": "human iPS cells", "assay": "Cell Adhesiveness Evaluation 2 (synthetic peptide inhibition of cell adhesion to natural vitronectin)", "details": "100 μM synthetic peptide", "procedure": "Polypeptides listed in Table 7 were synthesized by Emoc solid phase synthesis. A surface to which natural vitronectin was adsorbed at a concentration of 130 pmol/m^2, and thereafter, a cell suspension to which 100 μM of the above-described synthetic peptide was added was seeded at a rate of 30,000 cells/well. The number of adherent cells after 24 h post seeding was calculated by the same technique as in <Cell Adhesiveness Evaluation 1>."}, "[2]": {"tested_on": "human iPS cells", "assay": "Proliferation Evaluation of iPS cells on polypeptide-coated plate", "details": "for The Number (%) of Cells after 3 Days: 5000 cells/well", "procedure": "The iPS cells collected in the same manner as in <Cell Adhesiveness Evaluation 1>described above were seeded on a 96-well plate, to which RCP-1, RCP-11, and the natural human vitronectin were adsorbed, at a rate of 250 cells/well, and were cultured in a 5% CO2 incubator at 37° C. for 8 days. The number of adherent cells after each lapse of time was measured by the same method as in <Cell Adhesiveness Evaluation 1> described above, to obtain proliferation curves, The proliferation curves were indicated in FIG. 2. In FIG. 2, a black rhombus represents an example in which RCP-1 was used, while a black tetragon represents an example in which RCP-11 was used.\nSimilarly, each of samples from […] was prepared so as to have an addition concentration listed in Table 8 with each of from RCP-1 to RCP-10, and RCP-17, and Human Recombinant Laminin-511 as a reference, was seeded on a 96-well plate, to which each polypeptide was adsorbed, at a rate of 5000 cells/well in the same manner as in<Cell Adhesiveness Evaluation 1> described above, and was cultured in a CO2 incubator at 37° C. for 3 days. The number of cells after the 3 days was measured by the same method as in <Cell Adhesiveness Evaluation 1> described above."}, "[3]": {"tested_on": "human iPS cells", "assay": "Evaluation of Maintenance of Undifferentiation (colony form, NANOG staining)", "details": "for form of iPS cell colonies: FIG. 3, TESR2, subculture every six days; for NANOG expression (immunostaining): FIG. 4; for NANOG expression (immunostaining) / maintenance of undifferentiated state: cultured for 1 month", "procedure": "iPS cells collected in the same manner as in <Cell Adhesiveness Evaluation 1> described above were suspended in TESR2. Induced pluripotent stem cells (iPS cells) were seeded on a 6-well plate (Tissue Culture-Treated, Falcon) to which each of the sample 1, the sample 2, the sample 5, the sample 6, and the sample 7 used in <Cell Adhesiveness Evaluation 1> described above was adsorbed in the same manner as in <Cell Adhesiveness Evaluation 1>, and were cultured in a CO2 incubator at 37° C. The culture medium was replaced by a fresh culture medium every day except the next day after the seeding. Subculture was performed by the same method as mentioned above every six days.\nThe cells were cultured under these conditions for 1 month, thereafter immobilized with 4% paraformaldehyde, and made to have membrane permeability enhanced with 1% Triton-X/PBS. Blocking treatment was performed with an Image IT Signal Enhancer (Invitrogen), followed by adding an anti-human NANOG antibody (AF1997, R&D Systems, Inc), ALEXA FLUOR 555-CONJUGATE rabbit anti-goat IgG antibody (Invitrogen), and DAPI (Dojindo Laboratories), by performing labeling, and by photographing the cells with a fluorescence microscope.\nIn each of FIG. 3 and FIG. 4, “A”, “B”, “C” “D”, and “E” show iPS cells cultured on RCP-1, iPS cells cultured on RCP-11, iPS cells cultured on the natural human vitronectin, iPS cells cultured on rinaminin-5, and iPS cells cultured on rLaminin-511, respectively. Scale bar: 100 μm. In FIG. 3, overall colony images are shown in the left column, while magnified images are shown in the right column; and in FIG. 4, DAPI-stained images are shown in the left column while anti-NANOG antibody-stained images are shown in the right column. Scale bars in FIGS. 3 and 4: 200 μm."}}, "data": [{"molecule": "DQESCKGRCTEGFNVDKKCQ [Peptide-1]", "values": [{"measurement": "inhibition of cell adhesion to natural vitronectin (in words)", "setting": "[1]", "result": "adhesion inhibition did not occur"}]}, {"molecule": "CCTDYTAECKPQVTRGDVFT [Peptide-5]", "values": [{"measurement": "inhibition of cell adhesion to natural vitronectin (in words)", "setting": "[1]", "result": "significantly inhibited"}]}, {"molecule": "EGFNVDKKCQCDELCSYYQS [Peptide-3]", "values": [{"measurement": "inhibition of cell adhesion to natural vitronectin (in words)", "setting": "[1]", "result": "adhesion inhibition did not occur"}]}, {"molecule": "TAECKPQVTRGDVFTMPEDE [Peptide-6]", "values": [{"measurement": "inhibition of cell adhesion to natural vitronectin (in words)", "setting": "[1]", "result": "significantly inhibited"}]}, {"molecule": "DKKCQCDELCSYYQSCCTDY [Peptide-4]", "values": [{"measurement": "inhibition of cell adhesion to natural vitronectin (in words)", "setting": "[1]", "result": "significantly inhibited"}]}, {"molecule": "KGRCTEGFNVDKKCQCDELC [Peptide-2]", "values": [{"measurement": "inhibition of cell adhesion to natural vitronectin (in words)", "setting": "[1]", "result": "adhesion inhibition did not occur"}]}, {"molecule": "Laminin-511: recombinant laminin (Human Recombinant Laminin-511: Biolamina)", "values": [{"measurement": "The Number (%) of Cells after 3 Days", "setting": "[2]; addition amount 1.28 μg/cm^2", "result": 56.8, "unit": "%"}]}, {"molecule": "B1", "values": [{"measurement": "The Number (%) of Cells after 3 Days", "setting": "[2]; addition amount 5 μg/cm^2", "result": 89.9, "unit": "%"}]}, {"molecule": "B2", "values": [{"measurement": "The Number (%) of Cells after 3 Days", "setting": "[2]; addition amount 10 μg/cm^2", "result": 121.2, "unit": "%"}]}, {"molecule": "B3", "values": [{"measurement": "The Number (%) of Cells after 3 Days", "setting": "[2]; addition amount 5 μg/cm^2", "result": 153.5, "unit": "%"}]}, {"molecule": "B4", "values": [{"measurement": "The Number (%) of Cells after 3 Days", "setting": "[2]; addition amount 20 μg/cm^2", "result": 109.7, "unit": "%"}]}, {"molecule": "B5", "values": [{"measurement": "The Number (%) of Cells after 3 Days", "setting": "[2]; addition amount 20 μg/cm^2", "result": 70.5, "unit": "%"}]}, {"molecule": "B6", "values": [{"measurement": "form of iPS cell colonies", "setting": "[3]", "result": "homogeneous colony and a form characteristic for undifferentiated cells having a high nucleus occupying rate"}, {"measurement": "NANOG expression (immunostaining)", "setting": "[3]", "result": "strongly expressed NANOG in an overall colony"}, {"measurement": "maintenance of undifferentiated state", "setting": "[3]", "result": "undifferentiated state was favorably maintained"}]}, {"molecule": "B7", "values": [{"measurement": "The Number (%) of Cells after 3 Days", "setting": "[2]; addition amount 5 μg/cm^2", "result": 171.0, "unit": "%"}]}, {"molecule": "B8", "values": [{"measurement": "The Number (%) of Cells after 3 Days", "setting": "[2]; addition amount 20 μg/cm^2", "result": 81.7, "unit": "%"}]}, {"molecule": "B9", "values": [{"measurement": "The Number (%) of Cells after 3 Days", "setting": "[2]; addition amount 20 μg/cm^2", "result": 120.7, "unit": "%"}]}, {"molecule": "B10", "values": [{"measurement": "number of cells smaller than that of RCP-1, as fraction of RCP-1", "setting": "[2]; culture day 8, FIG. 2", "result": "around ⅓"}, {"measurement": "form of iPS cell colonies", "setting": "[3]", "result": "homogeneous colony and a form characteristic for undifferentiated cells having a high nucleus occupying rate"}, {"measurement": "NANOG expression (immunostaining)", "setting": "[3]", "result": "strongly expressed NANOG in an overall colony"}, {"measurement": "maintenance of undifferentiated state", "setting": "[3]", "result": "undifferentiated state was favorably maintained"}]}]}
